From patent US20210386836

T1: human C5a, P01031
T1 chain: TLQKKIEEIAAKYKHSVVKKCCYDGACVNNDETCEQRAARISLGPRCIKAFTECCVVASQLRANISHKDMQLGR

T2: C1s, P09871
T2 chain: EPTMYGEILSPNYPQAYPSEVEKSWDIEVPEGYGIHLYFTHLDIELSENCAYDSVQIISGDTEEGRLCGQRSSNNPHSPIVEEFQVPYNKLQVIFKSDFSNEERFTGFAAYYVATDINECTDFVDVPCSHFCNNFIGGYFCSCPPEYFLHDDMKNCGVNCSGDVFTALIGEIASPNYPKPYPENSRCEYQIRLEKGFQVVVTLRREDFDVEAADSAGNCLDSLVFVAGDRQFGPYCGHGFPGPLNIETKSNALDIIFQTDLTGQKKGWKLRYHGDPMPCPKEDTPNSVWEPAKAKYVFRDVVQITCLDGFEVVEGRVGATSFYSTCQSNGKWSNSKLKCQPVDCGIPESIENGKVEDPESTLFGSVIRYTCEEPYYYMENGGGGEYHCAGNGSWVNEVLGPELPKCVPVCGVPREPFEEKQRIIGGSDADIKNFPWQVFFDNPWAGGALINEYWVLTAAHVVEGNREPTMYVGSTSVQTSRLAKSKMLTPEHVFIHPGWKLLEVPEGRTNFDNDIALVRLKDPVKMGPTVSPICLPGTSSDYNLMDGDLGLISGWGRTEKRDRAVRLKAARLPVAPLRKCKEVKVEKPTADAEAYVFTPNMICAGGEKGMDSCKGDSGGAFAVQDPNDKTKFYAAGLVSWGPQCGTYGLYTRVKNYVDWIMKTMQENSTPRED

T3: C2a, P06681
T3 chain: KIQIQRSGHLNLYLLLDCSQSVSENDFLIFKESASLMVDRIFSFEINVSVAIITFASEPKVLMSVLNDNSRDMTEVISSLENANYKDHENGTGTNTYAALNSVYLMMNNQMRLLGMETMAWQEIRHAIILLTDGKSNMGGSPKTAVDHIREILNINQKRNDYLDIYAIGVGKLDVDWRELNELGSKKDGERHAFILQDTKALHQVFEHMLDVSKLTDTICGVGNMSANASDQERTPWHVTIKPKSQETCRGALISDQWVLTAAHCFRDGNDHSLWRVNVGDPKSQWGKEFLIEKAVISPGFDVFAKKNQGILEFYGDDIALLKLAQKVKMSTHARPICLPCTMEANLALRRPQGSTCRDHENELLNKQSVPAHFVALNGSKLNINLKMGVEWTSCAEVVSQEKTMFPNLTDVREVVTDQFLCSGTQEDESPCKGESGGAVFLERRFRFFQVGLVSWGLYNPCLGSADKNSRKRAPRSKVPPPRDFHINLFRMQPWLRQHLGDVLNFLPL

T4: C4-Binding protein, P04003
T4 chain 1: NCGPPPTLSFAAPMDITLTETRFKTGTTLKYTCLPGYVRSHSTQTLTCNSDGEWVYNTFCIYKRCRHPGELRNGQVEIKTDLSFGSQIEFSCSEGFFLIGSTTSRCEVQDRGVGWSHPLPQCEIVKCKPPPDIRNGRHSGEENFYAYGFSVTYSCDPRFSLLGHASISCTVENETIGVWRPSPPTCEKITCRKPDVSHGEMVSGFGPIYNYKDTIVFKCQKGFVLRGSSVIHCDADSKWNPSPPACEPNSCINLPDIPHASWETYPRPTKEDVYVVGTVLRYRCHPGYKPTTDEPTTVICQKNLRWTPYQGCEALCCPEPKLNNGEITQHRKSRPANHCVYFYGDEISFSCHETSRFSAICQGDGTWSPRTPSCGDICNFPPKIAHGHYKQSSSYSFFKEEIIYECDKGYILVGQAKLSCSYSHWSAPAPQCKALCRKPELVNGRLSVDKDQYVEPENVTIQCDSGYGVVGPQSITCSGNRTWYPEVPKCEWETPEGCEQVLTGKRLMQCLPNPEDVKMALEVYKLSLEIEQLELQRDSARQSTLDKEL
T4 chain 2: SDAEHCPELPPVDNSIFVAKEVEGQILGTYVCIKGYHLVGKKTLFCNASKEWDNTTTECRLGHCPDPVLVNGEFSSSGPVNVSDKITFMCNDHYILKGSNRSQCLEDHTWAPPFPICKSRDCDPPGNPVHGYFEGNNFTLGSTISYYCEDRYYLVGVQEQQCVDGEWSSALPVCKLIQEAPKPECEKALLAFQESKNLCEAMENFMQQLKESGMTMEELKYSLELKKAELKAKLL


How the values were obtained:
human C5a, P01031 = molecular target: T1, human C5a, P01031
C1s, P09871 = molecular target: T2, C1s, P09871
C2a, P06681 = molecular target: T3, C2a, P06681
[1] = molecular target: T4, C4-Binding protein, P04003

Chain of C3a, P01024 (P01024 672-748): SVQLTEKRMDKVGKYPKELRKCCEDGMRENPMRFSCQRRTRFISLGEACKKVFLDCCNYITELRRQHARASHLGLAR
Chain of Properidin, P27918 (P27918 28-469): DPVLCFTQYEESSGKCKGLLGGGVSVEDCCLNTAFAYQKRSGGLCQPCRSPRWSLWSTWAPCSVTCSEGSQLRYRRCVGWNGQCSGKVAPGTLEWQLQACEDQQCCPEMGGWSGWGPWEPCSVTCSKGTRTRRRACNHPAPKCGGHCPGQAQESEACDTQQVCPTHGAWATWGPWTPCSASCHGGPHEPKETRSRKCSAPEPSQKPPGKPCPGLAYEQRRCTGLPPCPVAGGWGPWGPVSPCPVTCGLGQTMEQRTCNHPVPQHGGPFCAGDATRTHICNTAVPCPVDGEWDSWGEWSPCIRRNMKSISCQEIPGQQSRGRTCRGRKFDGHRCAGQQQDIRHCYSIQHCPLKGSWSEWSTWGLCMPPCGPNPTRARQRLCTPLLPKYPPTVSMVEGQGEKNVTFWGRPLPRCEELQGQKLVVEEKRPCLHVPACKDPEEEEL
Chain of Factor B, P00751 (P00751 26-764): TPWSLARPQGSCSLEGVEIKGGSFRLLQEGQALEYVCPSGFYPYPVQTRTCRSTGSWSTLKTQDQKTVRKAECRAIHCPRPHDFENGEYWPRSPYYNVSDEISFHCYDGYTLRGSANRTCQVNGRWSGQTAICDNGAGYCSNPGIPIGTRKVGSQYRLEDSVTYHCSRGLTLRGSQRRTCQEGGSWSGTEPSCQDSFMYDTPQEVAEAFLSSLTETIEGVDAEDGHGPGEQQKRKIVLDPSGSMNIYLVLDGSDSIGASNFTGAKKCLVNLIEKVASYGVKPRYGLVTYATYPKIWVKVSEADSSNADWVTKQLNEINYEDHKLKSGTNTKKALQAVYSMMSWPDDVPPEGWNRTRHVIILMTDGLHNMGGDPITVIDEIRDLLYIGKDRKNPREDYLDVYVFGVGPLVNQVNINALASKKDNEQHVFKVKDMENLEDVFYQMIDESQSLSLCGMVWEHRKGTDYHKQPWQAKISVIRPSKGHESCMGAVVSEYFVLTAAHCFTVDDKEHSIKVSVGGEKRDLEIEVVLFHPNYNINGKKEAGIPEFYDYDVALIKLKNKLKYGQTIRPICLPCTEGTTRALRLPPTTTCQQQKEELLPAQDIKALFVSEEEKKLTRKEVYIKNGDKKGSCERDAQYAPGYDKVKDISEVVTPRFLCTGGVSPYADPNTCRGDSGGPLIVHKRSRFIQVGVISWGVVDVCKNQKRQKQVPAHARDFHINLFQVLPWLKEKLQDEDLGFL

| Protein | protein cleavage assay (SDS-PAGE) (human C5a, P01031) | proteolytic activity (SDS-PAGE) (Factor B, P00751) | protein cleavage assay (SDS-PAGE) (C3a, P01024) | proteolytic activity (control of enzyme stock) (C3a, P01024) | proteolytic activity (SDS-PAGE) (Properidin, P27918) | protein cleavage assay (SDS-PAGE) (TNF-α) | proteolytic activity (SDS-PAGE) (C5, P01031) | proteolytic activity (SDS-PAGE) (C1s, P09871) | proteolytic activity (SDS-PAGE) (C4) | protein cleavage assay (SDS-PAGE) (IL-17) | proteolytic activity (SDS-PAGE) (C2a, P06681) | proteolytic activity (SDS-PAGE) [1] | protein cleavage assay (SDS-PAGE) (IL-8) | protein cleavage assay (SDS-PAGE) (IL-1β) | protein cleavage assay (SDS-PAGE) (IP-10) |
| --- | --- | --- | --- | --- | --- | --- | --- | --- | --- | --- | --- | --- | --- | --- | --- |
| PrtV(Pro-B) (protein) DTVNGSESVKTEATQASGSSVQDNATAKTTVTTNSNSSNNVSNVQTDTVKEAATSNVDSVASQNQATTAQQAKTTADTADQTVPPTTYKDHVKGNVQTAWDNGYKGQGMVVAVIDSGADTNHKDFSKAPESPAISKEDADKKISELGYGKYASEKFPFVYNYASRDNNWVKDDGPDASEHGQHVAGIIGADGQPNGNERYAVGVAPETQLMMMRVFNDQFADENTDDIAQAIYDAVKLGANVIQMSLGQGVAAANLNDVEQKAVEYATQHGVFVSISASNNGNSASVTGEEVPYKPGGADGNFEPFSSSTVANPGASRNAMTVAAENSVVGAGDDMADFSSWGPLQDFTLKPDVSAPGVSVTSTGNDNRYNTMSGTSMAGPFNAGVAALVMQRLKATTNLNGADLVQATKALIMNTAKPMTQQGYDTPVSPRRQGAGEIDAGAATESPVYVVAADGTSSVSLRKVGDSTQFALTFKNLSDKDQTYTFDDFGGGLTEVRDADTGTFHDVYLAGAHVYGNKTVTVKAGQSATYNFTLSLTGLKENQLVEGWLRFVGNDGQNQLVVPYLAYYGDMTSEDVFDKAANQEGTVYGGNYFVNEDNYPRGVADEDSLKALVNLEGNYNWQQVAKLYQDGKVAFSPNADGKSDLLKPYAFVKQNLKDLKVEVLDKSGKVVRVVADEQGLDKSYYESGVNKDVTLSVSMRNNPNTLAWDGKVYDDKAGEMVNAADGEYTYRYVATLYNDGVNKVQTADYPVVIDTTAPVLSNVKYDAATHTLSFDYKDTGSGFTDYSYAVVKVNDKTFGYKLNDGKNSKFLDAAKTSGTFKAVLGSDTLAALTAAKNALSVAVSDVADNTSTVTLLVNGNNDATTKVSVWNATNGLELDQSSPDYQAATSTYNLRGNATSDFYYNGALVQVDNSGNFVVPVSTSDTAVVFTSDAAGKNVVYKLNTATPKAVFAWQVNNTVKENFGIVLDTVVSNNKDDVVVQAAVTKGDNVEAYARDYFTGAVYKADVKDGLATFHVKVTNNSGRTVLLGWTEVVGPTFNDVQRTSANGVYLGVDTDTENPTPAPAFTSADQLGTNVVQEKADSATIGNPGDLPGHSLKDLTTRADANPDIHFDYLKDNDYNWVGAQAVKDGVYNPSTQVFTLTGKVDPNVKSLVVLGDSYNEDDPVNKVNLNSDGTFSFQFHTAPTSQRPVAYIYTKDDGSTTRGTMELILDTVLPTLSLNNVANLQLDSNGDYQVYTNNKDFSVSGEATDNLDGYRFFFNGDNDYREFHNSGVNFVAEAHQDGSTVTNPYPAYKFSKTFNLADATGETTHVYTLSVVDLTGNTVTRKFYVHY | has activities against | None of the complement proteins tested show evidence of breakdown | has activities against | shown to be active against C3a | None of the complement proteins tested show evidence of breakdown | has activities against | None of the complement proteins tested show evidence of breakdown | None of the complement proteins tested show evidence of breakdown | None of the complement proteins tested show evidence of breakdown | has activities against | None of the complement proteins tested show evidence of breakdown | None of the complement proteins tested show evidence of breakdown | has activities against | has activities against | has activities against |
| PrtI(ProB) (protein, not fully specified; X: residue not identified in the source) AIGETSVQNVKVSVAKNESDSQKFNNSQNLEQKTPQAAAANQNGSQVQNDHTETQLQNQQTTQSQVTQAHTEENNASSIPEPANQADHVKGNVQSAWDQGYKGQNTVVAVIDSGADTSHKDFQTMPSNPKLKQEDVQSKIDQQGYGKYVNEKFPYVYNYADRDNDYIKSDDNNQXNDSPHGQHVSGIIAADGHPEGDQQYVVGVAPEAQLMQLRVFGQFSDEKTDDVARAIYDATNLGADVIQMSLGQGVADQQLTNIEQKAVQYAIDHGVFVSISASNNGNSASVDNPSKVTAKGYGSGSEAGNYEPLNSGTVANPGASKNALTVAAETSGTGKDSDMASFSSWGPLSDFSLKPDLSAPGYQVVSTVNDNQYQTMSGTSMAGPFAAGSAALVIQRLKQTNPELKGAELVAATKALLMNSAKVQTQNGYTTPVSPRRQGAGQIDVGAATANPVYVTAADGTSSLSLRQVDEKTTFTLTFHNLTDQEQSYSFNDLGGGYTEQRDPDSGVFHEVQLAGAHVNGVGNFTLAPKEVKDLQYTLDLQGLNKNQPVEGWLHFTNDKDKSTVVVPYLAYYGDLTSENVFDQNANEEKPDIQGNRFVNENNYPLGVTDQESLKQLVNVDSDYNWQEVAKLYESGKVAFSPNDDHQSDLIKPYAYLKQNVKDLKVEILDAKGNVVRVVSDVQGVDKSYDESGVTKDASLSVSMRDNPDAFEWDGKVYDTKTGQMVTAPDGQYTYRFVATLWNEGPNQKQTADFPVVVDTQAPSLSVKYDSATHTLSGNYEDKGAGFTDYSYVTVQVNDKVFGYKLNEGESGFDNSEKTKGHFNFTLSSDALDALSGSLNKVSVTLSDVANNTTVKTVDVPAVKDQPAVSVWNATEGVEFNKNSKDYNKENDTYTLYGSAAQDFYLNGALVQVRDGKYEVPVKTTTQDLVFSTDQAGKNVLKSFTTFTPKAFFNWQNVDGFDGNFGVNIYSVKTNDPNNAVVQAAVPLGKNVKAYAQDYFTGEVYKGQVENGVATFHVHTSINQGEDGIFKRALLTGWSEVDGPAYNDKQVTSKAGVASSNHLGVYYTTDKVNRKVYTDRADLGVDVQDEAADLSSFGPTAYPGHALADLTTRTDPNPAIHFDYLNDNDTTRFGQNAVTDGYYDSVTKKFTVTGHVDPEVKSLTVLGDSSDENAPQNQVKLGKDGKFSFSFTTENVGQRPVAYIYTDQNGQKVRGTLNVVLDTVAPTLNVDQVNGNELEVKTNNPLFKLSGVVNDNLDGYRLYVNGNNIYREFLNSGYNKLAGLNTDGTDVNPYGPHNFEESFNLNDDNNQPTTHVFTIYVVDQVGNKVEKKIAVNYDPDYVA | has activities against | None of the complement proteins tested show evidence of breakdown | has activities against | shown to be active against C3a | None of the complement proteins tested show evidence of breakdown | has activities against | None of the complement proteins tested show evidence of breakdown | None of the complement proteins tested show evidence of breakdown | None of the complement proteins tested show evidence of breakdown | has activities against | None of the complement proteins tested show evidence of breakdown | None of the complement proteins tested show evidence of breakdown | has activities against | has activities against | has activities against |
